Experimental findings from publication PMC6737233, “A novel epitope-presenting thermostable scaffold for the development of highly specific insulin-like growth factor-1/2 antibodies” (The Journal of Biological Chemistry, 2019) are described below.

Experiment [1] deals with T1, IGF-1 linear sequence stretch Lys75 to Arg84 (on 15-mer array peptides) (Homo sapiens (Human).).
T1 construct: human IGF-1, stretch Lys75–Arg84 (numbers on UniProtKB P05019), mapped with 15-mer peptides off-set by 1 amino acid; The peptides on the array were 15 amino acids long; source: synthetic peptide, spotted on Intavis CelluSpots glass slides
T1 chain: KPTGYGSSSR
Nature of the experiment: peptide or protein array; Intavis CelluSpots slides with 15-mer peptides (off-set 1) of human IGF-1, and an alanine scan; 1 μg/ml antibody in TBST, ambient temperature, 2 h; HRP secondary antibody, chemiluminescence.

In experiment [2] the target is T2, human recombinant IGF-1 (insulin-like growth factor 1) (Homo sapiens (Human)., UniProt P05019).
T2 construct: insulin-like growth factor 1, human, mature 70-amino acid polypeptide hormone (7.7 kDa; 7.6-kDa recombinant analyte); loop positions 74–90 are counted on UniProtKB P05019; Two suppliers are named (PeproTech for SPR, Roche Penzberg for ECLIA); They are kept as one molecule because both are recombinant mature human IGF-1; also called mature human IGF-1; source: bought: PeproTech (100-11) (SPR); …
T2 sequence (P05019 49-118): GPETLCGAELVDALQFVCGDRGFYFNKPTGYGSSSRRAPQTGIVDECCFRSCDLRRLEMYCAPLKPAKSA
Description: SPR; Biacore T200, 25 °C, HBS-EP (10 mM HEPES pH 7.4, 150 mM NaCl, 1 mM EDTA, 0.05% Tween 20); mAb from clone culture supernatant captured by immobilised polyclonal rabbit anti-mouse IgG on CM5; analytes injected at 90, 30, 10, 3.3, 1.1, 0 nM, in triplicate; dissociation 5, 30 or 120 min (IGF-1 on anti–IGF-1: 120 min); 1:1 Langmuir fit. To be noted: one partner purified. On the technique in general: In SPR one partner is held on a chip, and binding of the other changes the refractive index at the surface.

For experiment [3], the target named is T3, human recombinant IGF-2 (insulin-like growth factor 2) (Homo sapiens (Human)., UniProt P01344).
T3 construct: insulin-like growth factor 2, human, mature 67-amino acid peptide (7.5 kDa; 7.2-kDa recombinant analyte); loop positions 53–65 are counted on UniProtKB P01344; also called mature IGF-2; source: bought: PeproTech (100-12)
T3 sequence (P01344 25-91): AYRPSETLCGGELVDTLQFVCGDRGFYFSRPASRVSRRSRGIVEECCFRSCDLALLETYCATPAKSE
Described as above. To be noted: one partner purified.

Experiment [4] deals with T2, human recombinant IGF-1 (insulin-like …). Described as above. To be noted: one partner purified. The source holds these as a separate data set.
In another experiment the target is T4, TtSlyD-IGF-1(74–90) (Thermus thermophilus (strain ATCC …)).
T4 construct: Thermus thermophilus SlyD, FKBP domain upstream of the insertion site (Nt-SlyD-FKBP); the printed cell begins with the MRGS tag, which replaces Met1; single glycine linker; human IGF-1 loop, positions 74–90 of UniProtKB P05019, grafted in place of the IF domain (TtSlyD residues 67–121); Thermus thermophilus SlyD, FKBP domain downstream of the insertion site (Ct-SlyD-FKBP), from Ala122; The SPR …
T4 chain: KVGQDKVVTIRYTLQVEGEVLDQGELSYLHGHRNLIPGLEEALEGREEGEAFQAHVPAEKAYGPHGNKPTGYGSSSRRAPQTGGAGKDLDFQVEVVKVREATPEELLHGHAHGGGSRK
Described as above. Particulars: one partner purified.

B1: mAb anti–IGF-1(74–90) (antibody, V domains shown)
VH: QVQLQQSGAELVRPGSSVKISCKASGYAFSNLWMNWVKQRPGQGLEWIGQIYPGDGDTNYYGDFKGKATLTADSSSSTAYMQLSRLTSEDSAVYFCARIGYYGMDYWGQGTSVTVSS
VL: DVVLTQTPLSLPVNIGDEASISCKSTKSLLSSDGLTYLDWYLQKPGQSPQVLIYLVSNRFSGVPDRFSGSGSGTDFTLKISRVEAEDLGVYYCFQSNYLPTFGAGTKLELK
notes: Murine monoclonal antibody raised with TtSlyD-IGF-1(74–90); In the ECLIA it stood as a biotinylated or ruthenylated conjugate (lysine ε-amino groups); also called mAb IGF-1(74–90); anti–IGF-1 antibody; source: mouse hybridoma; clone culture supernatant captured on the sensor (SPR); purified from the cell culture supernatant (immunoconjugates for ECLIA)
Take B1: the binding result in experiment [1] was “binds”; in experiment [3], “no binding (tested: 90 nM)”. Moreover, the t1/2 diss in experiment [2] came out at 11.3 h. For the same molecule, the Kd (in general, the concentration at which binding is half-saturated) in experiment [4] came out at 0.0055 nM; with TtSlyD-IGF-1(74–90) it was 0.031 nM. In addition, the values for the koff (in experiment [4]; with TtSlyD-IGF-1(74–90)) were 1.7e-05 s⁻¹ and 2.8e-05 s⁻¹, respectively. Moreover, the results for the kon (in experiment [4]; with TtSlyD-IGF-1(74–90)) were 3e+06 M⁻¹ s⁻¹ and 920000 M⁻¹ s⁻¹, respectively.
